Experimental data taken from patent US20200199576.

Columns and labels:
xUbcH7 (human), R5E, K9E = molecular target: T1, xUbcH7 (human), R5E, K9E
T1 chain: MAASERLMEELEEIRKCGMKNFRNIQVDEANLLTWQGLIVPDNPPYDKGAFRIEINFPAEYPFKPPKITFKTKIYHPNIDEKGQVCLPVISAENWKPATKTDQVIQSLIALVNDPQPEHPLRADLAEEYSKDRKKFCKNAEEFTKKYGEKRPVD

p53, P04637, sequence (P04637 whole entry, looked up): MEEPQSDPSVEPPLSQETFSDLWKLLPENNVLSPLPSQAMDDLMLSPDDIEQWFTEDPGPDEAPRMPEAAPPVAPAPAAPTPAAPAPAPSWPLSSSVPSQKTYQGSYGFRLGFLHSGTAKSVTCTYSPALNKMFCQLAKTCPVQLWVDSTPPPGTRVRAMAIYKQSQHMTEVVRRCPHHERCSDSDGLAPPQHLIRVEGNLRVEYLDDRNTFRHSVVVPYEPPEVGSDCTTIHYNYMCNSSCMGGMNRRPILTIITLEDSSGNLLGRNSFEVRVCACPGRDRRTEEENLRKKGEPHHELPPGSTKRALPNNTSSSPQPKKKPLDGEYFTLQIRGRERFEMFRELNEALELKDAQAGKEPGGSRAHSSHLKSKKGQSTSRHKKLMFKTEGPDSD

B1: xCHIP (CHIP-KB2), C213K, G214D, K215P, S217M, F218H, E219T (protein)
chain: MKGKEEKEGGARLGAGGGSPEKSPSAQELKEQGNRLFVGRKYPEAAACYGRAIMQQHEQALADCRRALELDGQSVKAHFFLGQCQLEMESYDEAIANLQRAYSLAKEQRLNFGDDIPSALRIAKKKRWNSIEERRIHQESELHSYLSRLIAAERERELEECQRNHEGDEDDSHVRAQQACIEAKHDKYMADMDELFSQVDEKRKKRDIPDYLKDPIMHTLMREPCITPSGITYDRKDIEEHLQRVGHFDPVTRSPLTQEQLIPNLAMKEVIDAFISENGWVEDY
For B1, which “p53 ubiquitination with xUB, Western blot” value (p53, P04637) is on record?
The value was “both CHIP mutants could transfer xUB to p53, a known CHIP substrate (26), at an efficiency comparable to wt UB transfer by wt CHIP”.

B2: xCHIP (CHIP-KB12), C213K, G214D, K215P, S217M, F218R, E219T (protein)
chain: MKGKEEKEGGARLGAGGGSPEKSPSAQELKEQGNRLFVGRKYPEAAACYGRAIMQQHEQALADCRRALELDGQSVKAHFFLGQCQLEMESYDEAIANLQRAYSLAKEQRLNFGDDIPSALRIAKKKRWNSIEERRIHQESELHSYLSRLIAAERERELEECQRNHEGDEDDSHVRAQQACIEAKHDKYMADMDELFSQVDEKRKKRDIPDYLKDPIMRTLMREPCITPSGITYDRKDIEEHLQRVGHFDPVTRSPLTQEQLIPNLAMKEVIDAFISENGWVEDY
With B2 as the protein, how does the “p53 ubiquitination with xUB, Western blot” value (p53, P04637) read?
Its value is “both CHIP mutants could transfer xUB to p53, a known CHIP substrate (26), at an efficiency comparable to wt UB transfer by wt CHIP”.

B3: HECT domain of wt Nedd4 (protein)
chain: SRDYKRKYEFFRRKLKKQNDIPNKFEMKLRRATVLEDSYRRIMGVKRADFLKARLWIEFDGEKGLDYGGVAREWFFLISKEMFNPYYGLFEYSATDNYTLQINPNSGLCNEDHLSYFKFIGRVAGMAVYHGKLLDGFFIRPFYKMMLHKPITLHDMESVDSEYYNSLRWILENDPTELDLRFIIDEELFGQTHQHELKNGGSEIVVTNKNKKEYIYLVIQWRFVNRIQKQMAAFKEGFFELIPQDLIKIFDENELELLMCGLGDVDVNDWREHTKYKNGYSANHQVIQWFWKAVLMMDSEKRIRLLQFVTGTSRVPMNGFAELYGSNGPQSFTVEQWGTPEKLPRAHTCFNRLDLPPYESFEELWDKLQMAIENTQGFDGVD
Which “HECT auto-ubiquitination with wt UB, reducing gel” value (wt UbcH7 (human E2)) does the source give for B3 here?
Its value is “HECT domains of wt E6AP, Nedd4, Smurf1 and Smurf2 can be loaded with wt UB through the wt Uba1-UbcH7 pair”.

And the “HECT auto-ubiquitination with xUB, reducing gel” value (xUbcH7 (human), R5E, K9E)?
The value was “the R5E and K9E mutants in the N-terminal helix of xUbcH7 interfered with the transfer of xUB to wt HECT E3s such as E6AP, Nedd4, Smurf1, and Smurf2”.

B4: HECT domain of wt Smurf1 (protein)
chain: YERDLVQKLKVLRHELSLQQPQAGHCRIEVSREEIFEESYRQIMKMRPKDLKKRLMVKFRGEEGLDYGGVAREWLYLLCHEMLNPYYGLFQYSTDNIYMLQINPDSSINPDHLSYFHFVGRIMGLAVFHGHYINGGFTVPFYKQLLGKPIQLSDLESVDPELHKSLVWILENDITPVLDHTFCVEHNAFGRILQHELKPNGRNVPVTEENKKEYVRLYVNWRFMRGIEAQFLALQKGFNELIPQHLLKPFDQKELELIIGGLDKIDLNDWKSNTRLKHCVADSNIVRWFWQAVETFDEERRARLLQFVTGSTRVPLQGFKALQGSTGAAGPRLFTIHLIDANTDNLPKAHTCFNRIDIPPYESYEKLYEKLLTAVEETCGFAVE
For B4, which “HECT auto-ubiquitination with wt UB, reducing gel” value (wt UbcH7 (human E2)) is on record?
The value was “HECT domains of wt E6AP, Nedd4, Smurf1 and Smurf2 can be loaded with wt UB through the wt Uba1-UbcH7 pair”.

What about the “HECT auto-ubiquitination with xUB, reducing gel” value (xUbcH7 (human), R5E, K9E) of the same protein?
Its value is “the R5E and K9E mutants in the N-terminal helix of xUbcH7 interfered with the transfer of xUB to wt HECT E3s such as E6AP, Nedd4, Smurf1, and Smurf2”.

B5: wt HECT domain of E6AP (protein)
chain: MKRAAAKHLIERYYHQLTEGCGNEACTNEFCASCPTFLRMDNNAAAIKALELYKINAKLCDPHPSKKGASSAYLENSKGAPNNSCSEIKMNKKGARIDFKDVTYLTEEKVYEILELCREREDYSPLIRVIGRVFSSAEALVQSFRKVKQHTKEELKSLQAKDEDKDEDEKEKAACSAAAMEEDSEASSSRIGDSSQGDNNLQKLGPDDVSVDIDAIRRVYTRLLSNEKIETAFLNALVYLSPNVECDLTYHNVYSRDPNYLNLFIIVMENRNLHSPEYLEMALPLFCKAMSKLPLAAQGKLIRLWSKYNADQIRRMMETFQQLITYKVISNEFNSRNLVNDDDAIVAASKCLKMVYYANVVGGEVDTNHNEEDDEEPIPESSELTLQELLGEERRNKKGPRVDPLETELGVKTLDCRKPLIPFEEFINEPLNEVLEMDKDYTFFKVETENKFSFMTCPFILNAVTKNLGLYYDNRIRMYSERRITVLYSLVQGQQLNPYLRLKVRRDHIIDDALVRLEMIAMENPADLKKQLYVEFEGEQGVDEGGVSKEFFQLVVEEIFNPDIGMFTYDESTKLFWFNPSSFETEGQFTLIGIVLGLAIYNNCILDVHFPMVVYRKLMGKKGTFRDLGDSHPVLYQSLKDLLEYEGNVEDDMMITFQISQTDLFGNPMMYDLKENGDKIPITNENRKEFVNLYSDYILNKSVEKQFKAFRRGFHMVTNESPLKYLFRPEEIELLICGSRNLDFQALEETTEYDGGYTRDSVLIREFWEIVHSFTDEQKRLFLQFTTGTDRAPVGGLGKLKMIIAKNGPDTERLPTSHTCFNVLLLPEYSSKEKLKERLLKAITYAKGFGML
With B5 as the protein, how does the “HECT auto-ubiquitination with wt UB, reducing gel” value (wt UbcH7 (human E2)) read?
The value was “HECT domains of wt E6AP, Nedd4, Smurf1 and Smurf2 can be loaded with wt UB through the wt Uba1-UbcH7 pair”.

B6: xE6AP (fYW6), full-length E6AP with the YW6 HECT domain (protein)
chain: MKRAAAKHLIERYYHQLTEGCGNEACTNEFCASCPTFLRMDNNAAAIKALELYKINAKLCDPHPSKKGASSAYLENSKGAPNNSCSEIKMNKKGARIDFKDVTYLTEEKVYEILELCREREDYSPLIRVIGRVFSSAEALVQSFRKVKQHTKEELKSLQAKDEDKDEDEKEKAACSAAAMEEDSEASSSRIGDSSQGDNNLQKLGPDDVSVDIDAIRRVYTRLLSNEKIETAFLNALVYLSPNVECDLTYHNVYSRDPNYLNLFIIVMENRNLHSPEYLEMALPLFCKAMSKLPLAAQGKLIRLWSKYNADQIRRMMETFQQLITYKVISNEFNSRNLVNDDDAIVAASKCLKMVYYANVVGGEVDTNHNEEDDEEPIPESSELTLQELLGEERRNKKGPRVDPLETELGVKTLDCRKPLIPFEEFINEPLNEVLEMDKDYTFFKVETENKFSFMTCPFILNAVTKNLGLYYDNRIRMYSERRITVLYSLVQGQQLNPYLRLKVRRDHIIDDALVRLEMIAMENPADLKKQLYVEFEGEQGVDEGGVSKEFFQLVVEEIFNPDIGMFTYDESTKLFWFNPSSFETEGQFTLIGIVLGLAIYNNCILDVHFPMVVYRKLMGKKGTFRDLGDSHPVLYQSLKDLLEYEGNVEREWHITFQISQTDLFGNPMMYDLKENGDKIPITNENRKEFVNLYSDYILNKSVEKQFKAFRRGFHMVTNESPLKYLFRPEEIELLICGSRNLDFQALEETTEYDGGYTRDSVLIREFWEIVHSFTDEQKRLFLQFTTGTDRAPVGGLGKLKMIIAKNGPDTERLPTSHTCFNVLLLPEYSSKEKLKERLLKAITYAKGFGML
How did the “p53 ubiquitination in the presence of E6, Western blot” value (p53, P04637) turn out when B6 was run?
Its value is “fYW6 could efficiently ubiquitinate p53 with xUB through the xUba1-xUbcH7-fYW6 cascade and the ubiquitination was dependent on the E6 protein”.

And the “full-length E6AP auto-ubiquitination with xUB, Western blot” value (xUbcH7 (human), R5E, K9E)?
Its value is “fYW4 and fYW6 can be auto-ubiquitinated by xUB through the xUba1-xUbcH7 cascade”.

B7: E6AP HECT mutant YW6 (D651R, D652E, M653W, M654H) (protein)
chain: MKRAAAKHLIERYYHQLTEGCGNEACTNEFCASCPTFLRMDNNAAAIKALELYKINAKLCDPHPSKKGASSAYLENSKGAPNNSCSEIKMNKKGARIDFKDVTYLTEEKVYEILELCREREDYSPLIRVIGRVFSSAEALVQSFRKVKQHTKEELKSLQAKDEDKDEDEKEKAACSAAAMEEDSEASSSRIGDSSQGDNNLQKLGPDDVSVDIDAIRRVYTRLLSNEKIETAFLNALVYLSPNVECDLTYHNVYSRDPNYLNLFIIVMENRNLHSPEYLEMALPLFCKAMSKLPLAAQGKLIRLWSKYNADQIRRMMETFQQLITYKVISNEFNSRNLVNDDDAIVAASKCLKMVYYANVVGGEVDTNHNEEDDEEPIPESSELTLQELLGEERRNKKGPRVDPLETELGVKTLDCRKPLIPFEEFINEPLNEVLEMDKDYTFFKVETENKFSFMTCPFILNAVTKNLGLYYDNRIRMYSERRITVLYSLVQGQQLNPYLRLKVRRDHIIDDALVRLEMIAMENPADLKKQLYVEFEGEQGVDEGGVSKEFFQLVVEEIFNPDIGMFTYDESTKLFWFNPSSFETEGQFTLIGIVLGLAIYNNCILDVHFPMVVYRKLMGKKGTFRDLGDSHPVLYQSLKDLLEYEGNVEREWHITFQISQTDLFGNPMMYDLKENGDKIPITNENRKEFVNLYSDYILNKSVEKQFKAFRRGFHMVTNESPLKYLFRPEEIELLICGSRNLDFQALEETTEYDGGYTRDSVLIREFWEIVHSFTDEQKRLFLQFTTGTDRAPVGGLGKLKMIIAKNGPDTERLPTSHTCFNVLLLPEYSSKEKLKERLLKAITYAKGFGML
With B7 as the protein, how does the “HECT auto-ubiquitination with xUB, Western blot” value (xUbcH7 (human), R5E, K9E) read?
The value was “YW3, YW4 and YW6 could be efficiently auto-ubiquitinated with xUB through the xUba1-xUbcH7 pair”.
